Test results taken from US20240043519A1 (OHIO STATE INNOVATION FOUNDATION, published 2024).

Legend:
NOTCH1 = target: T1, NOTCH1 (human, UniProt P46531 19-2555); assay: co-immunoprecipitation, THP-1 cells and human AML patient blasts (figure legend)
T1 construct: whole, on cells; Endogenous protein from cell lysates (antibody array, co-IP); also called NOTCH1 protein
Protocol: (§1) Cell lysate of 10×10⁶ THP-1 cells or 5×10⁶ human AML patient blasts (n=2) were subjected to CO-IP with Protein G Plus/Protein A agarose beads.
(§2) Cells (1-5×10⁶) were lysed in 400 μl of Pierce Co-Immunoprecipitation lysis buffer (Thermo Scientific) supplemented with protease and phosphatase inhibitors (Roche). Cell lysis was performed on ice for 20 min and the cell lysate was sonicated for 5 sec three times. After centrifugation with 14,000 g at 4° C. for 15 min, the cell lysate supernatant was transferred to new tubes immediately and added to 50% Protein G Plus/Protein A agarose beads (EMD Millipore, Tremecula, CA, USA) with a ratio of 100 μl for a lml sample solution. After incubation with rotation at 4° C. for 1 h, and the mixture was centrifuged at 14,000 g for 10 min at 4° C. The supernatant was transferred to new tubes, added with 2-20 μg antibody and incubated on rotating shaker at 4° C. overnight. After centrifugation, the supernatant was incubated with 50 μl proteinA/G agarose at 4° C. with rotation for 2 h. The agarose beads were washed five times with ice-cold Pierce Co-Immunoprecipitation lysis buffer. Then 20 μl 2×loading buffer was added, boiled for 5 min and subjected to Western blotting. The corresponding normal antibodies were applied as negative control for CO-IP.

NOTCH2 = target: T2, NOTCH2 (human, UniProt Q04721 26-2471); assay: as above
T2 construct: whole, on cells; Endogenous protein from cell lysates (co-IP); also called NOTCH2 protein
T2 sequence (Q04721 26-2471): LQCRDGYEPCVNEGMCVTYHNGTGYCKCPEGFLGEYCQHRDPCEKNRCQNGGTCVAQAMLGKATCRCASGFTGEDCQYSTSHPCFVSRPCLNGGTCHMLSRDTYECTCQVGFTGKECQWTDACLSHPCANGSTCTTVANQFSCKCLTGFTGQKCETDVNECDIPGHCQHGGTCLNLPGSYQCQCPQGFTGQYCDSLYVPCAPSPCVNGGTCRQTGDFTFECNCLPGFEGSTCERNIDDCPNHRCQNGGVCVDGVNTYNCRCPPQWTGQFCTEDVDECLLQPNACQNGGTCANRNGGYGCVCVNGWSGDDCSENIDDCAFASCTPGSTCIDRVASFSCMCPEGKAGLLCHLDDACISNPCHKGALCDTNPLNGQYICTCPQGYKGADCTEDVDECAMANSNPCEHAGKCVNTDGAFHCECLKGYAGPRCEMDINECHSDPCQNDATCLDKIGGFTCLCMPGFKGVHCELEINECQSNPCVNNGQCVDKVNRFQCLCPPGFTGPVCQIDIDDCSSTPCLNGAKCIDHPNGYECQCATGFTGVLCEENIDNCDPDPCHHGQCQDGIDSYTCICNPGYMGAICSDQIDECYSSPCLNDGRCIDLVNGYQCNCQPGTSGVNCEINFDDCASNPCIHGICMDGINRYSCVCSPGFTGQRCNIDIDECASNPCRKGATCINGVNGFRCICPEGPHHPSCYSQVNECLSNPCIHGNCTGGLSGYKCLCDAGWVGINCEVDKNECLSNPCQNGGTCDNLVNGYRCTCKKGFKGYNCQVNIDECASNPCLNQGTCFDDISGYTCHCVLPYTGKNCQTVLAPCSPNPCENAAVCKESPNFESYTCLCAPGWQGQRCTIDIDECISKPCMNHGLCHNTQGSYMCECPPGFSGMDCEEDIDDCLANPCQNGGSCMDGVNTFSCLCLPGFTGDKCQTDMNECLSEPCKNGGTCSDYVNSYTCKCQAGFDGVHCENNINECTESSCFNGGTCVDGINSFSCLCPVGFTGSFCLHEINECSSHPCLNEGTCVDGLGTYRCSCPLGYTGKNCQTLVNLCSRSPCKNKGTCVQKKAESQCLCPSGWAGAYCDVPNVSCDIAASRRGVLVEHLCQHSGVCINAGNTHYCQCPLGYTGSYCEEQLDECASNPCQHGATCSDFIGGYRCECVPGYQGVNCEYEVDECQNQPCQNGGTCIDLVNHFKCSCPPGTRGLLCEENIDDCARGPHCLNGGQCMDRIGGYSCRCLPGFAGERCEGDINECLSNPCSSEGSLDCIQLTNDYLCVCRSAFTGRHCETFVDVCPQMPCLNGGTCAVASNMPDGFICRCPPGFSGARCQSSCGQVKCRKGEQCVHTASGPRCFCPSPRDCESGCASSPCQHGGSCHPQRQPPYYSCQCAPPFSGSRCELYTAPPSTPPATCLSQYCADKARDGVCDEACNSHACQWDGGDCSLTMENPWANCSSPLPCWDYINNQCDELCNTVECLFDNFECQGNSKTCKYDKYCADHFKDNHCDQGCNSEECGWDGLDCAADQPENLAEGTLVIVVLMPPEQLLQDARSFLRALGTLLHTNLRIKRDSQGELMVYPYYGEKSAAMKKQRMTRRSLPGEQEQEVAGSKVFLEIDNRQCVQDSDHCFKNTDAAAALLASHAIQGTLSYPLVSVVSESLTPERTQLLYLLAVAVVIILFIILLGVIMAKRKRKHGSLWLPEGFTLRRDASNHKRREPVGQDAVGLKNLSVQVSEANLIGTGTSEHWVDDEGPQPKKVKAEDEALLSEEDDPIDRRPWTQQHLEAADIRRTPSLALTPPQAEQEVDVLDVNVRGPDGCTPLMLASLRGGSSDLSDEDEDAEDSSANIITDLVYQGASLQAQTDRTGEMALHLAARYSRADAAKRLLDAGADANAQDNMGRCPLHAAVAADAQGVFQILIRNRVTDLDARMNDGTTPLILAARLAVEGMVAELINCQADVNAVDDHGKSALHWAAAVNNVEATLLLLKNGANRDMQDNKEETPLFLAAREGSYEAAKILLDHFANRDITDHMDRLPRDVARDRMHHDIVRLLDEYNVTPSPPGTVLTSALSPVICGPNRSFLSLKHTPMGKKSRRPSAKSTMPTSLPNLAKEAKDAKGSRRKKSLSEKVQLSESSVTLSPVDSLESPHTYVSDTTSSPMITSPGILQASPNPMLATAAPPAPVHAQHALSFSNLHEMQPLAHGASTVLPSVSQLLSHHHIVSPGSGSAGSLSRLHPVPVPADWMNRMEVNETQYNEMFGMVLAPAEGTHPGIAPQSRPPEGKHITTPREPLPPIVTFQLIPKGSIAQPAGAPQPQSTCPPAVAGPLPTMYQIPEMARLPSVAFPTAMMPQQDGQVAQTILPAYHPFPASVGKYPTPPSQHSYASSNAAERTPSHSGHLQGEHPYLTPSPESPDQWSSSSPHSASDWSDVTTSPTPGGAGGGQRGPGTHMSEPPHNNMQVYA
Protocol: as §1, §2

- binding result (NOTCH1): binds
- binding result (NOTCH2): binds
B1: EGFL7 protein (endogenous, in lysates of human AML cells: Kasumi-1, THP-1, primary AML patient blasts) (ligand)
chain: TEHAYRPGRRVCAVRAHGDPVSESFVQRVYQPFLTTCDGHRACSTYRTIYRTAYRRSPGLAPARPRYACCPGWKRTSGLPGACGAAICQPPCRNGGSCVQPGRCRCPAGWRGDTCQSDVDECSARRGGCPQRCVNTAGSYWCQCWEGHSLSADGTLCVPKGGPPRVAPNPTGVDSAMKEEVQRLQSRVDLLEEKLQLVLAPLHSLASQALEHGLPDPGSLLVHSFQQLGRIDSLSEQISFLEEQLGSCSCKKDS
notes: Endogenous protein immunoprecipitated from cell lysates; also called Epidermal growth factor-like domain 7
